Assay [1] has as its target GABARAP K48A mutant (human) (UniProt O95166). Nature of the assay: ITC. (In general: Isothermal titration calorimetry measures the heat released or taken up as one component is titrated into another.)
Assay [2] addresses GABARAP Y5F H9A mutant (human) (UniProt O95166). Put plainly: ITC.

pKd: −log10 of the molar value.

What is called pKd is the Kd on a negative log10 scale, so that one unit is a factor of ten. A higher pKd goes with a small Kd. “phosphorylated TEX264 LIR (residues 269-278 with p-S271,p-S272) (peptide)”: the negative logarithm of the Kd (pKd) in assay [1] and in assay [2] was 5.70 in each case.

The values above are taken from paper doi:10.1101/2022.02.11.480038.
